Reference: IntAct's records for PubMed 19461891

B1: Defective in germ line development protein 3 (Caenorhabditis elegans), Q95ZK7-1 (parent)
chain: MGEQSHEKDHDEAHSYNPFVRSAVEYDADTRLQMAENAASARKLFVSSALKDIIVNPENFYHDFQQSAQMAEDANQRRQVSYNTKREAHIHQLKAQGLPLPSNIPMIEINPTRVTLNMEFESQYYSLMTSDNGDHENVASIMAETNTLIQLPDRSVGGTTPDPFAQQVTITGYFGDVDRARMLMRRNCHFTVFMALSKMKMPLHELQAHVRQNPIQNVEMSFVDAPEKNGIVTTYLRITAREKNQHELIEAAKRLNEILFRESPAPENNFTLHFTLSTYYVDQVLGSSSTAQLMPVIERETTTIISYPCYNNRNETRGNIYEIKVVGNIDNVLKARRYIMDLLPISMCFNIKNTDMAEPSRVSDRNIHMIIDESGIILKMTPSVYEPADLLSGEVPLNCASLRSKEFNIKKLYTAYQKVLSKKFDFIAPQPNDYDNSIWHHSLPANFLKNFNMPCRGELSDGSNGRRHRSSSIASSRSKHSYMSKGKQFSESSGGPSRSHTRVSSFSENSSTVPIMQFPTPHFAPPMLTPHHHMLKYVYLQQHQQAQTFLKGAAGLHPGTHIMFPPPIIVDGSFVSALPFADPVVFDGFPYVHGLFPVNEAEQHRNHRESSPSLRSTQEIRKPSRNMGNRPSSSTGSYYPSTTPRQRVYEQVREDDLRSHIGSRRTSVNGDDQNVESMHDQGYERQYPRQHQRLQKDDQQRWKTGSRGDIHSSRTINVHRDVRNSNEYDFHVGNSGPAKRSPSLEQVQLQMTHHLKLKSNDVDLDHEKLYMHESPHNDSDTTVSASGFGNDLMDGDFVQRFLSNANINESGRRPRTVSCFTEKDGQSARYIDSDGAYSVVDHASTHQSRSYDSFRKVGDNGVTKTILEPRARVEKDYGKISLEHKTKYSNEYGDEEKSAENDTSSLGSRQYRIDPMKLIASVRESSEQLPRIHERQFSDVLNEKEKEIADKSIESTVTQDLSLDETSTY
partner: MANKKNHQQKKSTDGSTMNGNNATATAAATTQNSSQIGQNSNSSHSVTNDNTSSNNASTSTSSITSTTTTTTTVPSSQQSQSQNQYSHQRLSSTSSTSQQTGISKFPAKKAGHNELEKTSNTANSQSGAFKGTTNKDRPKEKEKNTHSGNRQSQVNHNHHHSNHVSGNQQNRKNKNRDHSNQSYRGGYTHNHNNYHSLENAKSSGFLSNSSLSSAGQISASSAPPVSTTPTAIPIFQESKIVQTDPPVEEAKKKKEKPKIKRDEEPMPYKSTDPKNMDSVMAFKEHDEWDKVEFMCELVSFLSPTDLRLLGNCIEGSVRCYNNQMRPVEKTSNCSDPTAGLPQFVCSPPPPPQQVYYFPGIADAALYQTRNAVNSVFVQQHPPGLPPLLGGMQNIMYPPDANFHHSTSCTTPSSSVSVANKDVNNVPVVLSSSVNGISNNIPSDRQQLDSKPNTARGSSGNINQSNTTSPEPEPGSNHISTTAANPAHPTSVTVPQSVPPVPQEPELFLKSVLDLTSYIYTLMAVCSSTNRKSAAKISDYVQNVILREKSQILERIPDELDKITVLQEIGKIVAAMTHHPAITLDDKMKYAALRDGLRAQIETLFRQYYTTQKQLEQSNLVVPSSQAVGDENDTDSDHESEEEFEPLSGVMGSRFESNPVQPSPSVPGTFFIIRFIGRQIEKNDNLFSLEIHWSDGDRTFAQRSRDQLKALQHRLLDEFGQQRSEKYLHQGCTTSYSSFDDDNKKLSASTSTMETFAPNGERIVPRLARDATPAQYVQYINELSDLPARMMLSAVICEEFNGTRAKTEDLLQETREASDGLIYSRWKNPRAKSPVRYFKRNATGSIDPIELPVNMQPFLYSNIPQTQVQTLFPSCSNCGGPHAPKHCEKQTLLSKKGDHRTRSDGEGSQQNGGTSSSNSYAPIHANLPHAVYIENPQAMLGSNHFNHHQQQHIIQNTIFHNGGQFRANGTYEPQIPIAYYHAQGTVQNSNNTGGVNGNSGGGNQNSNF

Variants of: B1
Conditions: with gls-1, Q8I4M5-3

effect of a mutation on the interaction | Variant
disrupting interaction strength | G327R
